# According to publication doi:10.1101/2022.03.13.484121:
# Legend:
# [1] = biological target: pro-meprin α C308A (human (from the printed accession)) (UniProt Q16819); assay: SEC-MALS
# [2] = biological target: meprin α R372T, mature (activated) form (human (from the printed accession)) (UniProt Q16819); assay: MALDI-TOF mass spectrometry
Substance,stoichiometry N [1],stoichiometry N [2]
pro-meprin α C308A (from UniProt Q16819 22-600) (enzyme),2,
"meprin α R372T, mature (activated) form (from UniProt Q16819 22-600) (enzyme)",,2
